{
  "source": "patent US20210238249",
  "key": {"[1]": {"target": "fusion protein TOM70-(GGGGS)3-UB-p53 (UniProt P07213)"}, "[2]": {"target": "recombinant fusion protein TOM70-UB-p53 (UniProt P07213)"}},
  "data": [
    {"substance": "UBP1 enzyme", "values": [
      {"measurement": "cleavage of the ubiquitin sequence by UBP1, 37 C for 1 hour, SDS-PAGE", "setting": "[1]", "value": "the 3′ end of ubiquitin was cleaved by UBP1 enzyme, and only p53 protein was dissociation as expected"},
      {"measurement": "cleavage of the ubiquitin sequence by UBP1, 37 C for 1 hour, SDS-PAGE", "setting": "[2]", "value": "the dissociation of the ubiquitin protein from the fusion protein did not occur at all by UBP1"}
    ]}
  ]
}
